Paper PMC5576363

Legend:
LbuC2c2-dHEPN2 = molecular target: T1, LbuC2c2-dHEPN2 (Leptotrichia buccalis, UniProt C7NBY4 1-1159, R1048A;H1053A); assay: filter binding
T1 sequence: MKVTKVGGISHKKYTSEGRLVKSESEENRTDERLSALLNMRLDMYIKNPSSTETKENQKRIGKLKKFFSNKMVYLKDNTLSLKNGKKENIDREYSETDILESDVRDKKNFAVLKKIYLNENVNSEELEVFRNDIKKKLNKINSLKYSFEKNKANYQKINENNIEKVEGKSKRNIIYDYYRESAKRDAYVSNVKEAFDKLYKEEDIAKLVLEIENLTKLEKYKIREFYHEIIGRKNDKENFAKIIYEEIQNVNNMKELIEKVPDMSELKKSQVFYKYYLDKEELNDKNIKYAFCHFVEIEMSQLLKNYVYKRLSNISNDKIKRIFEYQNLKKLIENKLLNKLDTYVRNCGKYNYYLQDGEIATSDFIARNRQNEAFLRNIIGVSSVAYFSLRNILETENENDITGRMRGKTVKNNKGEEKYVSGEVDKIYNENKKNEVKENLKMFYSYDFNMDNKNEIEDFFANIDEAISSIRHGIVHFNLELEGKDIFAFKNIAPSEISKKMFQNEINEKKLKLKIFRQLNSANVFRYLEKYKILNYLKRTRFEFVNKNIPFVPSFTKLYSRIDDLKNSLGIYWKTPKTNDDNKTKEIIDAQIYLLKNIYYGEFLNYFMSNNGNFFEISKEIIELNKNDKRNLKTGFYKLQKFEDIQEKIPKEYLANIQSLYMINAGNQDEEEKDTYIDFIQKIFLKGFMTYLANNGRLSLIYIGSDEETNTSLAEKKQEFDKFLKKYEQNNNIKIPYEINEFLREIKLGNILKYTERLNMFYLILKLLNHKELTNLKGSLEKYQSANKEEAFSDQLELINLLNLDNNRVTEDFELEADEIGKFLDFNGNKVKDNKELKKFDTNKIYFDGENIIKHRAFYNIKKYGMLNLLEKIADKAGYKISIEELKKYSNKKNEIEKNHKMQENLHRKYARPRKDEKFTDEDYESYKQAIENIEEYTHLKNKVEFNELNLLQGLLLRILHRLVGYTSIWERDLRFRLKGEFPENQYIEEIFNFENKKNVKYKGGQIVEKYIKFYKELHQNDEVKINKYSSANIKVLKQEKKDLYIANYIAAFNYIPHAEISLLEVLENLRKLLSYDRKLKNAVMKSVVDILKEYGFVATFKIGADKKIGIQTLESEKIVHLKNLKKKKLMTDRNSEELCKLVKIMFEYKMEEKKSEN

LbuC2c2-dHEPN1 = molecular target: T2, LbuC2c2-dHEPN1 (Leptotrichia buccalis, UniProt C7NBY4 1-1159, R472A;H477A); assay: filter binding
T2 sequence: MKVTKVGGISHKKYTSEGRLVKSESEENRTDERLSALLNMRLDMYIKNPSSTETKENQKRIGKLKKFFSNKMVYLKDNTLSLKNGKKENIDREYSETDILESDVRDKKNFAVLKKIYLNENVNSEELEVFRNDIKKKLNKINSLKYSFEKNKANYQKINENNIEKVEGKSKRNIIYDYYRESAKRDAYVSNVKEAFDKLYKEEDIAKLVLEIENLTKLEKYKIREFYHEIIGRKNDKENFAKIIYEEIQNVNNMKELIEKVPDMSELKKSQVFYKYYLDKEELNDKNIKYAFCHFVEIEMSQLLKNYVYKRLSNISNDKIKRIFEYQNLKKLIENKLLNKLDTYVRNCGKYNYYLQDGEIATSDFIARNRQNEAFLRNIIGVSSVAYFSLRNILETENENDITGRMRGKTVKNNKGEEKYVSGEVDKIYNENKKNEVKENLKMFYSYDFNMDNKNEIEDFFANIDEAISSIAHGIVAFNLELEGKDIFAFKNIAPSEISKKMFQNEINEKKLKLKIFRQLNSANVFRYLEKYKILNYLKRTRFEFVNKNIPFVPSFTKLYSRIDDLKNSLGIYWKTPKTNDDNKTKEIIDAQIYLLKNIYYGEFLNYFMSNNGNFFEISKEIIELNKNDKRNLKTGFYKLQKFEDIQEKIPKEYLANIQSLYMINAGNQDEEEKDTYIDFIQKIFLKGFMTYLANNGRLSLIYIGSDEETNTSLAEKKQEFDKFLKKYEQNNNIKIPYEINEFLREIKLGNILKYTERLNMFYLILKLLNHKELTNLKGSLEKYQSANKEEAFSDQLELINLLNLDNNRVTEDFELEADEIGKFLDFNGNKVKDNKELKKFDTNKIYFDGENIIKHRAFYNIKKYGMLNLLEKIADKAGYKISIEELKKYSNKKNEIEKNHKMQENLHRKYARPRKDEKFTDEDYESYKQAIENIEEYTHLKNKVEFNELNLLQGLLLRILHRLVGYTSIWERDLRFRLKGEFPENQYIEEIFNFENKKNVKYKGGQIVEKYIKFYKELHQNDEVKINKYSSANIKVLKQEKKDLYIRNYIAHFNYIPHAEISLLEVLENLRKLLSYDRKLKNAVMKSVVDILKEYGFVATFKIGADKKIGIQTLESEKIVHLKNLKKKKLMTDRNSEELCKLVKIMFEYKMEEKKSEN

LbuC2c2-dHEPN1/dHEPN2 [1] = molecular target: T3, LbuC2c2-dHEPN1/dHEPN2 (Leptotrichia buccalis, UniProt C7NBY4 1-1159, R472A;H477A;R1048A;H1053A); assay: filter binding
T3 sequence: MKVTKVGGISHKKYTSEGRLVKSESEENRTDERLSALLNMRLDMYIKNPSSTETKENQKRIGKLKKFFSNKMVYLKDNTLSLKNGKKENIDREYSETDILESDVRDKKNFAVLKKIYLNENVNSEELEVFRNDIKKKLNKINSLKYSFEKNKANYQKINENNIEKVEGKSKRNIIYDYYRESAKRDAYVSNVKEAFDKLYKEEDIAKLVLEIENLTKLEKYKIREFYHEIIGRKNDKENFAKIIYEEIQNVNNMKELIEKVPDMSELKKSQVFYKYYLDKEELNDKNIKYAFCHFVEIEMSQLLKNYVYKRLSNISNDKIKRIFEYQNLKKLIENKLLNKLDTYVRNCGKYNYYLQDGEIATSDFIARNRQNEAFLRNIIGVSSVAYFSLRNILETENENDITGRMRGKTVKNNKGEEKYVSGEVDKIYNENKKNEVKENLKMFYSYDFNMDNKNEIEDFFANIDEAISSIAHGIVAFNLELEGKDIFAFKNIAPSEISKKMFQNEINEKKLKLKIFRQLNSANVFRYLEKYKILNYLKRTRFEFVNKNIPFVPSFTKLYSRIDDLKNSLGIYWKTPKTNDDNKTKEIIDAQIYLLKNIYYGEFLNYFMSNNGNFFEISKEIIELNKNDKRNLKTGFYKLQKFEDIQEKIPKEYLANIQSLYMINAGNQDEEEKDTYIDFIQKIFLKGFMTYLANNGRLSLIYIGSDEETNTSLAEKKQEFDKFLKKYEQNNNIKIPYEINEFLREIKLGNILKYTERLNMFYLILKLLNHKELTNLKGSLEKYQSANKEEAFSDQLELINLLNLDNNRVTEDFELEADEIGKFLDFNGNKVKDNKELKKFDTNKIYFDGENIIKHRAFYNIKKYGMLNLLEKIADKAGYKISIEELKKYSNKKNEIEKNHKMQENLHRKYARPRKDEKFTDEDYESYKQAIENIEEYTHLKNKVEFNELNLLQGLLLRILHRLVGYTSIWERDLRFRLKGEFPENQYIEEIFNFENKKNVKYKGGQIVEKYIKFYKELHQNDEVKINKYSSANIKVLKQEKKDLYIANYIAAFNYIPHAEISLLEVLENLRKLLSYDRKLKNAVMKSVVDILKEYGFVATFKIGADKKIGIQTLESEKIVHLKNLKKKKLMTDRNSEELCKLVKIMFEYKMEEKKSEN

LbuC2c2-R1079A = molecular target: T4, LbuC2c2-R1079A (Leptotrichia buccalis, UniProt C7NBY4 1-1159, R1079A); assay: filter binding
T4 sequence: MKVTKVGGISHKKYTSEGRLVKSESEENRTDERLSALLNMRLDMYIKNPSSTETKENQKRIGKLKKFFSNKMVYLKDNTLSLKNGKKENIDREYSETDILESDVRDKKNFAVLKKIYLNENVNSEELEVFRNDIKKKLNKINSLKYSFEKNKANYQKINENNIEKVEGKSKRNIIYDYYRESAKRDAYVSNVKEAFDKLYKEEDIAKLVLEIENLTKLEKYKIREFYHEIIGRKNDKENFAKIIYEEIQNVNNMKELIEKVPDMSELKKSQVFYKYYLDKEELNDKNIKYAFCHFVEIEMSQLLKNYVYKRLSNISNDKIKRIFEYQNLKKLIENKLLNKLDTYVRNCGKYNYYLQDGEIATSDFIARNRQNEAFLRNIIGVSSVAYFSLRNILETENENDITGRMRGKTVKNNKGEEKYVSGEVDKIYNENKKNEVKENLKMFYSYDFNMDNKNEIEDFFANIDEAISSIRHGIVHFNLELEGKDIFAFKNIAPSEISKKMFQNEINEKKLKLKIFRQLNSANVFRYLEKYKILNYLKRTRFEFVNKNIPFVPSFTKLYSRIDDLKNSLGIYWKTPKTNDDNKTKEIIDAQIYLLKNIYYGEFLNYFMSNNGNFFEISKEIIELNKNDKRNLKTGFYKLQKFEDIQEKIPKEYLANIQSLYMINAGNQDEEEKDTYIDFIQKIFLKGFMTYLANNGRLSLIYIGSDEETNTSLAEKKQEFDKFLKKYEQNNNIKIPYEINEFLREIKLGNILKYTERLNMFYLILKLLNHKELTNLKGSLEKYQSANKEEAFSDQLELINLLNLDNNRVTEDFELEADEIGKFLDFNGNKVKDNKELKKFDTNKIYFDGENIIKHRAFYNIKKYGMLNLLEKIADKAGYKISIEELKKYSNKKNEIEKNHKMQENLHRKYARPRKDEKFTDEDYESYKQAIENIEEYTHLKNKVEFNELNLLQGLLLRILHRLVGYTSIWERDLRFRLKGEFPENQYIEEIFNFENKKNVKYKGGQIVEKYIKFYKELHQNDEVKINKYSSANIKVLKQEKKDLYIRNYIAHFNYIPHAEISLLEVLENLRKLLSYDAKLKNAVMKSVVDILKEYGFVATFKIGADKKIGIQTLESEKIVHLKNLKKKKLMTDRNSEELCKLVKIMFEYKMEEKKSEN

LbuC2c2-dHEPN1/dHEPN2 [2] = molecular target: T3, LbuC2c2-dHEPN1/dHEPN2; assay: EMSA

B1: mature crRNA-A_GG (crLbu_A_GG_AES432) (structured_RNA)
RNA: GGCCACCCCAAAAAUGAAGGGGACUAAAACAGGGGCAGAGAUGAUGACCCU
Kd (LbuC2c2-dHEPN2): 11.5 ± 2.5 nM | Kd (LbuC2c2-dHEPN1): 15.2 ± 3.2 nM | Kd (LbuC2c2-dHEPN1/dHEPN2 [1]): 43.3 ± 11.5 nM

B2: mature crRNA-A_GA (crLbu_A_mature_GA_SCK340) (structured_RNA)
RNA: GACCACCCCAAAAAUGAAGGGGACUAAAACAGGGGCAGAGAUGAUGACCCU
Kd (LbuC2c2-R1079A): 2.52 ± 0.5 nM

B3: crRNA-A_GG guide + on-target A ssRNA (mixed)
RNA 1: GGCCACCCCAAAAAUGAAGGGGACUAAAACAGGGGCAGAGAUGAUGACCCU
RNA 2: GGCACACCCGCAGGGGGGAGCCAAAAGGGUCAUCAUCUCUGCCCCCACAGCAGAAGCCCC
Kd (LbuC2c2-dHEPN1/dHEPN2 [2]): 1.62 ± 0.43 nM
